Tests used:
Assay in all cases: holdup assay
Set-up in all cases: key: below the threshold = too weak to quantify, mostly under pKd 3.1 to 4
MPP7, Q5T2T1 = target: T1, MPP7, Q5T2T1
T1 sequence (Q5T2T1 134-230, limits assumed, looked up): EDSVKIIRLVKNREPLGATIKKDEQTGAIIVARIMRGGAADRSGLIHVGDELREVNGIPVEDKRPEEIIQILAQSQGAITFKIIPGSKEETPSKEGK

SIPA1L2, Q9P2F8 = target: T2, SIPA1L2, Q9P2F8
T2 sequence (Q9P2F8 945-1036, limits assumed, looked up): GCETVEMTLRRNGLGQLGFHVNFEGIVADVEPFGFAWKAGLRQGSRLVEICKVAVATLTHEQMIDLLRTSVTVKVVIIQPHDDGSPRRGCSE

PTPN13_4, Q12923 = target: T3, PTPN13_4, Q12923
T3 sequence (Q12923 1783-1878, limits assumed, looked up): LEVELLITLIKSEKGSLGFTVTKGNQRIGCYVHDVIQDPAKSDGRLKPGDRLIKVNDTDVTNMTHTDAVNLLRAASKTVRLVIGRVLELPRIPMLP

USH1C_1, Q9Y6N9 = target: T4, USH1C_1, Q9Y6N9
T4 sequence (Q9Y6N9 82-179, limits assumed, looked up): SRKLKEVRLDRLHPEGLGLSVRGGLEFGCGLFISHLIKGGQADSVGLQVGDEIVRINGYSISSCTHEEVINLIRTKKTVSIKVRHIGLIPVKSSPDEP

MPDZ_13, O75970 = target: T5, MPDZ_13, O75970
T5 sequence (O75970 1982-2070, limits assumed, looked up): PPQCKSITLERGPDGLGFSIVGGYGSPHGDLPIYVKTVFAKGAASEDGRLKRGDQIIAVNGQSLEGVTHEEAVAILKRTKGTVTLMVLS

RIMS1, Q86UR5 = target: RIMS1, Q86UR5
Inadl_7, Q8NI35 = target: Inadl_7, Q8NI35
PARD3B_2, Q8TEW8 = target: PARD3B_2, Q8TEW8
PREX2_2, Q70Z35 = target: T6, PREX2_2, Q70Z35
T6 sequence (Q70Z35 672-764, limits assumed, looked up): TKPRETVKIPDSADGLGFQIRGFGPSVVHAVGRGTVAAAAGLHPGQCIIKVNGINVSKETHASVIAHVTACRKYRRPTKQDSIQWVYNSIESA

TJP3_2, O95049 = target: T7, TJP3_2, O95049
T7 sequence (O95049 190-282, limits assumed, looked up): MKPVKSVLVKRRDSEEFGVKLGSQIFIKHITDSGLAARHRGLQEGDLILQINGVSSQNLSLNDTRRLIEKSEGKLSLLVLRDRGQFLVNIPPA

PARD3B_3, Q8TEW8 = target: PARD3B_3, Q8TEW8
AHNAK2, Q8IVF2 = target: AHNAK2, Q8IVF2
PREX1_1, Q8TCU6 = target: PREX1_1, Q8TCU6
MAGI3_3, Q5TCQ9 = target: MAGI3_3, Q5TCQ9
PDZD2_6, O15018 = target: T8, PDZD2_6, O15018
T8 sequence (O15018 2745-2839, limits assumed, looked up): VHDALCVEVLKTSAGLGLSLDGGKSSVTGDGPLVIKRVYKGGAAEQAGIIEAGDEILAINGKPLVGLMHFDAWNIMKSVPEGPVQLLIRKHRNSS

PDZD4, Q76G19 = target: T9, PDZD4, Q76G19
T9 sequence (Q76G19 125-224, limits assumed, looked up): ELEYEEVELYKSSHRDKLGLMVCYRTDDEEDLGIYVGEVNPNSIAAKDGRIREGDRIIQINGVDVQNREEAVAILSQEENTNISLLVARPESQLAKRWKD

MPDZ_6, O75970 = target: T10, MPDZ_6, O75970
T10 sequence (O75970 1003-1099, limits assumed, looked up): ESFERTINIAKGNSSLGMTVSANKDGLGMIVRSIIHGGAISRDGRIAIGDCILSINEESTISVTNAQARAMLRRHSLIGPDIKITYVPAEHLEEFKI

PDZD8, Q8NEN9 = target: T11, PDZD8, Q8NEN9
T11 sequence (Q8NEN9 361-459, limits assumed, looked up): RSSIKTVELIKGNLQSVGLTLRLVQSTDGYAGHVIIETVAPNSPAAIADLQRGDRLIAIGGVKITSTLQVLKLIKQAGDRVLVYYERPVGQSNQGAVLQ

USH1C_2, Q9Y6N9 = target: T12, USH1C_2, Q9Y6N9
T12 sequence (Q9Y6N9 206-303, limits assumed, looked up): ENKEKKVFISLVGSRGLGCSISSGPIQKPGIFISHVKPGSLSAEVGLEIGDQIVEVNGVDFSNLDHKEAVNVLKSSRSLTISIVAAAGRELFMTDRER

MPDZ_11, O75970 = target: T13, MPDZ_11, O75970
T13 sequence (O75970 1720-1817, limits assumed, looked up): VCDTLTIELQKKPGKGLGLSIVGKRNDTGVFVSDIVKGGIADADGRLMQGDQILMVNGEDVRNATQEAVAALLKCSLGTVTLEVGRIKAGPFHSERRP

PDZD11, Q5EBL8 = target: T14, PDZD11, Q5EBL8
T14 sequence (Q5EBL8 42-139, limits assumed, looked up): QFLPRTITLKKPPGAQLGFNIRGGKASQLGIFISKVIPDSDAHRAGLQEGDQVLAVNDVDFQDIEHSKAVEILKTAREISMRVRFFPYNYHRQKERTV

MPDZ_7, O75970 = target: T15, MPDZ_7, O75970
T15 sequence (O75970 1146-1253, limits assumed, looked up): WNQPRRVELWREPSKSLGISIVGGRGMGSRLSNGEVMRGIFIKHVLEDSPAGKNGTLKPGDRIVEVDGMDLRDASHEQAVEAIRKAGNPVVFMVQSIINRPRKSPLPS

MAGI3_5, Q5TCQ9 = target: MAGI3_5, Q5TCQ9
[1] = plain residues with an end cap or a label only (N-terminal biotin on a linker: ado-ado)
[2] = modified: acetyl on K at position -1 from the C-terminal residue
[3] = modified: phospho on S at position -3 from the C-terminal residue
[4] = plain residues with an end cap or a label only (N-terminal biotin on a linker: (peg)3)

Measured: pKd

Inadl_7, Q8NI35, sequence (Q8NI35 1219-1332): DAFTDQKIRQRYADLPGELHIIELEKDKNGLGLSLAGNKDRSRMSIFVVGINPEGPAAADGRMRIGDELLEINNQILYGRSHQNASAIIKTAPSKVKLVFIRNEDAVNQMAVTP
AHNAK2, Q8IVF2, sequence (Q8IVF2 108-193): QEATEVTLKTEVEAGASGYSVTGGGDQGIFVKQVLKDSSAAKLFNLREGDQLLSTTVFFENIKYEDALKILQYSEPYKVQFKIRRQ
PARD3B_2, Q8TEW8, sequence (Q8TEW8 376-471): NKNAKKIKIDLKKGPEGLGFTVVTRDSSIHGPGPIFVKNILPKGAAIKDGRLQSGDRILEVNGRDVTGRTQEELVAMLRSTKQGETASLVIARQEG
MAGI3_3, Q5TCQ9, sequence (Q5TCQ9 572-655): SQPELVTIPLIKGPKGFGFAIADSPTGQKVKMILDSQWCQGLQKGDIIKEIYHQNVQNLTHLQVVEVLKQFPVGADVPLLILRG
PREX1_1, Q8TCU6, sequence (Q8TCU6 608-718): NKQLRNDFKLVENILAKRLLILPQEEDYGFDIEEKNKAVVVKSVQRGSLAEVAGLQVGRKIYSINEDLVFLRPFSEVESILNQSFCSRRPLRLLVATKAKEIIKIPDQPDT
MAGI3_5, Q5TCQ9, sequence (Q5TCQ9 847-941): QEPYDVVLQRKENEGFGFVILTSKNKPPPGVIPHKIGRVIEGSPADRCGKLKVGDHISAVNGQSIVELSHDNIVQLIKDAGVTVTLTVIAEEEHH
PARD3B_3, Q8TEW8, sequence (Q8TEW8 490-594): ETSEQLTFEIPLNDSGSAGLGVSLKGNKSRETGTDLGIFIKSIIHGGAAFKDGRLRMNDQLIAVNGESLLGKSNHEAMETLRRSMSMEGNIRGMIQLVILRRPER
RIMS1, Q86UR5, sequence (Q86UR5 584-692): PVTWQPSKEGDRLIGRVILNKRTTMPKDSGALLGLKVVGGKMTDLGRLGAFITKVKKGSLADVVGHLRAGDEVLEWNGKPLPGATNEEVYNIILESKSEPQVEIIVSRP

B1: CTBP1, Q13363 (peptide)
chain: ADRDHASDQL
below the threshold: MPP7, Q5T2T1; [1] | SIPA1L2, Q9P2F8; [1]

B2: PTEN_Ac, P60484 (peptide)
chain: DEDQHTQITKV
3.78: MPDZ_11, O75970; [2]
4.29: MPDZ_13, O75970; [2]
below the threshold: USH1C_1, Q9Y6N9; [2] | RIMS1, Q86UR5; [2] | PARD3B_2, Q8TEW8; [2] | PREX2_2, Q70Z35; [2] | TJP3_2, O95049; [2] | PARD3B_3, Q8TEW8; [2] | AHNAK2, Q8IVF2; [2] | MPP7, Q5T2T1; [2] | PREX1_1, Q8TCU6; [2] | MAGI3_3, Q5TCQ9; [2] | PDZD2_6, O15018; [2] | SIPA1L2, Q9P2F8; [2] | PDZD4, Q76G19; [2] | MPDZ_6, O75970; [2] | PDZD8, Q8NEN9; [2] | USH1C_2, Q9Y6N9; [2] | PDZD11, Q5EBL8; [2]
4.96: PTPN13_4, Q12923; [2]
4.2: Inadl_7, Q8NI35; [2]
4.8: MPDZ_7, O75970; [2]
3.97: MAGI3_5, Q5TCQ9; [2]

B3: RPS6KA1_-3P, Q15418 (peptide)
chain: RRVRKLPSTTL
3.72: MPDZ_13, O75970; [3]
below the threshold: PTPN13_4, Q12923; [3] | USH1C_1, Q9Y6N9; [3] | RIMS1, Q86UR5; [3] | Inadl_7, Q8NI35; [3] | PARD3B_2, Q8TEW8; [3] | PREX2_2, Q70Z35; [3] | TJP3_2, O95049; [3] | PARD3B_3, Q8TEW8; [3] | MPP7, Q5T2T1; [3] | PREX1_1, Q8TCU6; [3] | MAGI3_3, Q5TCQ9; [3] | PDZD2_6, O15018; [3] | SIPA1L2, Q9P2F8; [3] | PDZD4, Q76G19; [3] | MPDZ_6, O75970; [3] | PDZD8, Q8NEN9; [3] | USH1C_2, Q9Y6N9; [3] | MPDZ_11, O75970; [3] | PDZD11, Q5EBL8; [3] | MAGI3_5, Q5TCQ9; [3]
3.54: AHNAK2, Q8IVF2; [3]
3.63: MPDZ_7, O75970; [3]

B4: RRBP1, Q9P2E9 (peptide)
chain: GSSSKEGTSV
below the threshold: MPP7, Q5T2T1; [1] | SIPA1L2, Q9P2F8; [1]

B5: SARS-Cov2-3a, P0DTC3 (peptide)
chain: YDEPTTTTSVPL
below the threshold: PTPN13_4, Q12923; [4] | USH1C_1, Q9Y6N9; [4] | MPDZ_13, O75970; [4] | RIMS1, Q86UR5; [4] | Inadl_7, Q8NI35; [4] | PARD3B_2, Q8TEW8; [4] | PREX2_2, Q70Z35; [4] | TJP3_2, O95049; [4] | PARD3B_3, Q8TEW8; [4] | AHNAK2, Q8IVF2; [4] | MPP7, Q5T2T1; [4] | PREX1_1, Q8TCU6; [4] | MAGI3_3, Q5TCQ9; [4] | PDZD2_6, O15018; [4] | SIPA1L2, Q9P2F8; [4] | PDZD4, Q76G19; [4] | MPDZ_6, O75970; [4] | PDZD8, Q8NEN9; [4] | USH1C_2, Q9Y6N9; [4] | MPDZ_11, O75970; [4] | PDZD11, Q5EBL8; [4] | MPDZ_7, O75970; [4] | MAGI3_5, Q5TCQ9; [4]

Source: paper PMC9482650, “Quantitative fragmentomics allow affinity mapping of interactomes” (Nature Communications, 2022)
